B1: scFv; the commonest letter at each place (parent)
chain 1: EVKLDETGGGLVQPGRPMKLSCVASGFTFSDYWMNWVRQSPEKGLEWVAQIRNKPYNYETYYSDSVKGRFTISRDDSKSSVYLQMNNLRVEDMGIYYCTGSYYGMDYWGQGTSVTVS
chain 2: DVVMTQTPLSLPVSLGDQASISCRSSQSLVHSNGNTYLRWYLQKPGQSPKVLIYKVSNRFSGVPDRFSGSGSGTDFTLKISRVEAEDLGVYFCSQSTHVPWTFGGGTKLEIK

Key:
fluorescein = variants of: B1; assay: Kd (Tite-Seq); settings: with fluorescein; format: scFv 4-4-20, heavy + light
[1] = variants of: B1; assay: yeast surface expression (ratio to wild type); higher = more expressed; settings: format: scFv 4-4-20, heavy + light

Variant | Kd (fluorescein) | yeast surface expression [1]
chain 1 Y102S W108T | ≤ 0.000316 µM | 0.599
chain 1 Y107T G109C | ≥ 10 µM | 0.278
chain 1 S101K D106V | ≥ 10 µM | 0.257
chain 1 G100C Y102A | 0.00279 µM | 1.47
chain 1 D31H Y32F | 0.00194 µM | 0.801
chain 1 F29R D31G | ≥ 10 µM | 0.755
chain 1 F29R D31K | ≥ 10 µM | 0.343
chain 1 G100R Y107P W108D | ≥ 10 µM | 0.43
chain 1 T28F F29R | ≥ 10 µM | 0.797
chain 1 M34A N35I | ≥ 10 µM | 0.267
chain 1 G100F S101M | ≥ 10 µM | 0.704
chain 1 G100F S101I | ≥ 10 µM | 0.501
chain 1 S30E D31N | 0.000504 µM | 0.934
chain 1 W36P | ≥ 10 µM | 0.871
chain 1 F29N | 5.24 µM | 1.04
chain 1 F29G | ≥ 10 µM | 0.925
chain 1 F29P | 0.0318 µM | 1.05
chain 1 F29T | 0.00941 µM | 0.981
chain 1 F29L | 0.0402 µM | 0.984
chain 1 F29C | 0.195 µM | 0.885

Variant | Kd (fluorescein) | yeast surface expression [1]
chain 1 F29Y | 0.000783 µM | 0.978
chain 1 T28F D31A | 0.0507 µM | 0.637
chain 1 T28S S30R | 0.00265 µM | 0.787
chain 1 S30Y D31T | 0.00265 µM | 0.428
chain 1 Y103W D106T | ≥ 10 µM | 0.875
chain 1 F29G S30T N35R | ≥ 10 µM | 0.82
chain 1 S101N Y103L | ≥ 10 µM | 0.964
chain 1 D31H V37Q | 0.00128 µM | 0.928
chain 1 D31S W36S | ≥ 10 µM | 2.03
chain 1 N35T V37P | ≥ 10 µM | 0.726
chain 1 Y32S | 0.155 µM | 1.06
chain 1 G100V W108C | 5.96 µM | 0.628
chain 1 G100V W108N | ≥ 10 µM | 0.468
chain 1 G100I W108R | ≥ 10 µM | 0.781
chain 1 S101Y G104H | ≥ 10 µM | 0.343
chain 1 W108H | 0.00468 µM | 0.333
chain 1 W108D | ≥ 10 µM | 0.345
chain 1 G104N G109Y | ≥ 10 µM | 0.305
chain 1 N35V V37Y | ≥ 10 µM | 0.727
chain 1 Y103H G104F | ≥ 10 µM | 0.477

Variant | Kd (fluorescein) | yeast surface expression [1]
chain 1 M105T Y107N | ≥ 10 µM | 0.778
chain 1 D31H N35A W36R | ≥ 10 µM | 2.27
chain 1 M105T | ≥ 10 µM | 1
chain 1 M105A | ≥ 10 µM | 1.01
chain 1 Y103C G109Y | ≥ 10 µM | 0.494
chain 1 Y32A W33S V37G | ≥ 10 µM | 0.472
chain 1 N35L W36R | ≥ 10 µM | 0.352
chain 1 G100F Y107T | ≥ 10 µM | 0.842
chain 1 S30E N35E | ≥ 10 µM | 0.894
chain 1 Y107R G109S | 2.47 µM | 0.665
chain 1 M34Y N35R | ≥ 10 µM | 0.505
chain 1 G104I Y107D | ≥ 10 µM | 0.2
chain 1 T28R D31K | 0.00325 µM | 0.833
chain 1 W33M M34H N35K | ≥ 10 µM | 0.305
chain 1 M105I Y107Q | 8.13 µM | 0.872
chain 1 W33D M34Q | ≥ 10 µM | 0.754
chain 1 F29M N35W | ≥ 10 µM | 0.403
chain 1 F29Q Y32E W33S | ≥ 10 µM | 0.761
